Test results from publication PMC8561282 (Haematologica, 2021).

Target: recombinant glyceraldehyde 3-phosphate dehydrogenase (GAPDH) tetramer (UniProt P04406 1-335)
Assay: ITC

recombinant glyceraldehyde 3-phosphate dehydrogenase (GAPDH) tetramer, sequence (P04406 whole entry): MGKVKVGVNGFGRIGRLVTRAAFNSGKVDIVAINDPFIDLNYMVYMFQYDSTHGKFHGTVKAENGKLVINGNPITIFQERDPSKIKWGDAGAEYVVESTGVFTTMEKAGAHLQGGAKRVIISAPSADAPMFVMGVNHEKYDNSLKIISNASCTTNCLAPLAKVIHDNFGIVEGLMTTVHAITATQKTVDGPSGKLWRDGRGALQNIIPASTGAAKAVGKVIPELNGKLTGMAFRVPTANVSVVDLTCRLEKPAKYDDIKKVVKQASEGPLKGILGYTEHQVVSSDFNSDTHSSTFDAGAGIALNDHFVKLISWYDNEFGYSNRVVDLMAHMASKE

Kd [mM] | Binder
44.8 | MEELQDDYEDMMEENLEQEEYEDPDIPESQ (domain or fragment) [recombinantly expressed AE1 peptide spanning residues 1-30]
2.56 | recombinantly expressed band 3 (AE1) peptide, residues 1-56 (domain or fragment) MEELQDDYEDMMEENLEQEEYEDPDIPESQMEEPAAHDTEATATDYHTTSHPGTHK
